This assay concerns the target ep300_human EP300 (UniProt Q09472).

Chain of ep300_human EP300 (Q09472 whole entry): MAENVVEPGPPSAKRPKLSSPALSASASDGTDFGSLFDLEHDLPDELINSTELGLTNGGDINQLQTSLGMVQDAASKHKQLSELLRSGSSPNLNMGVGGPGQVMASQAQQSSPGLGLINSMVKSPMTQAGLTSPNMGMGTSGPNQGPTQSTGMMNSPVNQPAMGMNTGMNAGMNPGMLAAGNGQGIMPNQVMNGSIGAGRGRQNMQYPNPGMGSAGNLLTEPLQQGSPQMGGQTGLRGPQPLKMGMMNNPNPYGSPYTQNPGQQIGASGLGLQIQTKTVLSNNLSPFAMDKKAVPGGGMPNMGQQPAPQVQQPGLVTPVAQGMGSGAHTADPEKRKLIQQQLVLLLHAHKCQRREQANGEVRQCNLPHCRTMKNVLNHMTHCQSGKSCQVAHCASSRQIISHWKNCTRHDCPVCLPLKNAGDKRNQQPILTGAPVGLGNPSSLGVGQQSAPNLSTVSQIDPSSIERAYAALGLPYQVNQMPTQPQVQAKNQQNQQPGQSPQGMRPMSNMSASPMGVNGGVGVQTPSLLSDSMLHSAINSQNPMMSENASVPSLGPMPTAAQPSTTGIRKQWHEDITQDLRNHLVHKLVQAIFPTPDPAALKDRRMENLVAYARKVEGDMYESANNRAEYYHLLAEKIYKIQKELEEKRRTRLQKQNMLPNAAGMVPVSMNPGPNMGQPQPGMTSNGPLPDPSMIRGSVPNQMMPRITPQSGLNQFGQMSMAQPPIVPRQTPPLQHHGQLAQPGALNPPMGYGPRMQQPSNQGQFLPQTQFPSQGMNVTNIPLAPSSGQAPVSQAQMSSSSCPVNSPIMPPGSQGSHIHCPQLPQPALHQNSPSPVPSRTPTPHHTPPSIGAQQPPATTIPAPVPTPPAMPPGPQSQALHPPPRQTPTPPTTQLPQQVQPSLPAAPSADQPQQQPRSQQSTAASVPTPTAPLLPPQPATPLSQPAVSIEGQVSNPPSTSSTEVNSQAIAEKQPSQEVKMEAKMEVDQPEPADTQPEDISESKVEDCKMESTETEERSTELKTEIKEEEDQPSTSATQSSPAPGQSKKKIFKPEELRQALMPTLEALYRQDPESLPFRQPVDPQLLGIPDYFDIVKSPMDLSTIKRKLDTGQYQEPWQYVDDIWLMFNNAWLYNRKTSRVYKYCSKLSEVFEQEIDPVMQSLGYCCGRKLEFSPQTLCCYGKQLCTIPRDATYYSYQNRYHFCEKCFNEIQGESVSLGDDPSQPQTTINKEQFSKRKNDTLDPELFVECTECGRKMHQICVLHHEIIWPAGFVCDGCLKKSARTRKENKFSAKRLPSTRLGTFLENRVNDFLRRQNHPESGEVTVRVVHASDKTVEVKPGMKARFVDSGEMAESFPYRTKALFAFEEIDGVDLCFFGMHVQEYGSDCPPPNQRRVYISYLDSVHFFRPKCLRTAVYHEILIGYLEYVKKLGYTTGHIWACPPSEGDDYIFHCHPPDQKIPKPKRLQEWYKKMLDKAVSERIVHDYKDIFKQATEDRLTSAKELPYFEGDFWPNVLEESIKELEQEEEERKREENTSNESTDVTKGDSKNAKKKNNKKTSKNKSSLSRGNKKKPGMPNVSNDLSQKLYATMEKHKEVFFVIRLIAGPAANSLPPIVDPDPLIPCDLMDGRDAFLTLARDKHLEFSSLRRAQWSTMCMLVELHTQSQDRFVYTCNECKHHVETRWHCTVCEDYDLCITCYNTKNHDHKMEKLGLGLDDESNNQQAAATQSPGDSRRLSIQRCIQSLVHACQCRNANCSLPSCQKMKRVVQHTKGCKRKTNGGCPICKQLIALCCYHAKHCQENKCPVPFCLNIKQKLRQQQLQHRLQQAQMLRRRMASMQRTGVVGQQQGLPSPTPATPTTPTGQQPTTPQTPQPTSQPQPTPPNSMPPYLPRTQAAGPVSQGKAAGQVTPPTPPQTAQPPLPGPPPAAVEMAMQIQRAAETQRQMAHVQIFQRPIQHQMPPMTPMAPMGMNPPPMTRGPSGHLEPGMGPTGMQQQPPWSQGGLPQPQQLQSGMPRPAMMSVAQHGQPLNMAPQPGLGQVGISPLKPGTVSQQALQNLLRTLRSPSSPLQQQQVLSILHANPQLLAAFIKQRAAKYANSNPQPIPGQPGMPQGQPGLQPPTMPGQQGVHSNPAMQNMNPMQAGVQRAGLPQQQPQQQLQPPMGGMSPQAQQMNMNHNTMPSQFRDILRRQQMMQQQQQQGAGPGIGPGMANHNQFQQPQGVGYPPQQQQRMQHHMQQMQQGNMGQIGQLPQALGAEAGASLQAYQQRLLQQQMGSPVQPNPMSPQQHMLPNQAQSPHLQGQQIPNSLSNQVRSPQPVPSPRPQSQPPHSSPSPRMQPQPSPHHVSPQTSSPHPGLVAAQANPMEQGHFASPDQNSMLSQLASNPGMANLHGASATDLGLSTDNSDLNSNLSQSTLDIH
Chain of Myocyte-specific enhancer factor 2C (Homo sapiens), Q06413 T80A (Q06413 whole entry T80A): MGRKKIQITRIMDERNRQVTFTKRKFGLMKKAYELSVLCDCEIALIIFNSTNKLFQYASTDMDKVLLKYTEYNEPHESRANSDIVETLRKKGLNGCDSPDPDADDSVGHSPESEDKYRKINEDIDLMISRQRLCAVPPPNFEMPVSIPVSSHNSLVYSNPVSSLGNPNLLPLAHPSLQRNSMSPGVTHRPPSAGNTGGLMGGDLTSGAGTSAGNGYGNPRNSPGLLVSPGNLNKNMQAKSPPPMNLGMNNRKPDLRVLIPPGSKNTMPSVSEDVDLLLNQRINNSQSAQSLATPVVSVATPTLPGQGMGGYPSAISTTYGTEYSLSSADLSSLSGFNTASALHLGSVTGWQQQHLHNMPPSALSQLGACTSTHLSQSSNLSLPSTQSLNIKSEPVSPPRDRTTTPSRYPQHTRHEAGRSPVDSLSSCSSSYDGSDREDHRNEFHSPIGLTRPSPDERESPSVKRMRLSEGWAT

Take “Myocyte-specific enhancer factor 2C (Homo sapiens), Q06413 T80A”: the “effect of a mutation on the interaction” value is given as “decreasing interaction”.

Values taken from IntAct's records for PubMed 21556048.
